Experiments:
[1] = substrate: CC(=O)Oc1ccc([N+](=O)[O-])cc1; assay: pNP formation, A400, initial velocity, Michaelis-Menten fit; assay type: biochemical, Homo sapiens; details: 50 mM sodium phosphate pH 7.0, 37 °C, 0.7 μM enzyme
Source text: pNP formation, A400, initial velocity, Michaelis-Menten fit on DJ-1

[2] = substrate: O=CC(=O)c1ccccc1; assay: PGO consumption, A250, initial velocity, Michaelis-Menten fit; assay type: biochemical, Homo sapiens; details: 20 mM sodium phosphate pH 7.0, 37 °C
Source text: PGO consumption, A250, initial velocity, Michaelis-Menten fit on DJ-1

[3] = substrate: O=CC(=O)c1ccccc1; assay: as above; assay type: biochemical, Escherichia coli; details: 20 mM sodium phosphate pH 7.0, 37 °C
Source text: PGO consumption, A250, initial velocity, Michaelis-Menten fit on HchA

[4] = substrate: CC(=O)Oc1ccc([N+](=O)[O-])cc1; assay: pNP formation, A400, initial velocity, Michaelis-Menten fit; assay type: biochemical, Escherichia coli; details: 50 mM sodium phosphate pH 7.0, 37 °C, 1 μM enzyme
Source text: pNP formation, A400, initial velocity, Michaelis-Menten fit on HchA

B1: DJ-1 (Homo sapiens) (protein)
chain: MASKRALVILAKGAEEMETVIPVDVMRRAGIKVTVAGLAGKDPVQCSRDVVICPDASLEDAKKEGPYDVVVLPGGNLGAQNLSESAAVKEILKEQENRKGLIAAICAGPTALLAHEIGFGSKVTTHPLAKDKMMNGGHYTYSENRVEKDGLILTSRGPGTSFEFALAIVEALNGKEVAAQVKAPLVLKD
notes: N-terminal His-tag (pET28a), expressed in E. coli BL21(DE3)+RIL, Ni-NTA purified, tag removal not mentioned
In the case of B1, the Km [1] is reported as 4.76 ± 1.25 × 10^-3 M, the kcat [1] is reported as 5.47 ± 0.935 s⁻¹ and the kcat/Km [1] is reported as 1180 ± 203 M⁻¹ s⁻¹. The Km ([2]; 2 μM enzyme) was 5.22 ± 0.65 × 10^-5 M, the kcat ([2]; 2 μM enzyme) was 0.12 ± 0.007 s⁻¹ and the kcat/Km ([2]; 2 μM enzyme) was 2400 ± 229 M⁻¹ s⁻¹.

B2: DJ-1 (Homo sapiens; A107H) (protein)
chain: MASKRALVILAKGAEEMETVIPVDVMRRAGIKVTVAGLAGKDPVQCSRDVVICPDASLEDAKKEGPYDVVVLPGGNLGAQNLSESAAVKEILKEQENRKGLIAAICHGPTALLAHEIGFGSKVTTHPLAKDKMMNGGHYTYSENRVEKDGLILTSRGPGTSFEFALAIVEALNGKEVAAQVKAPLVLKD
notes: as for B1
B2 was tested, and the Km ([2]; 0.3 μM enzyme) was 6.44 ± 1.13 × 10^-4 M, the kcat ([2]; 0.3 μM enzyme) was 1.65 ± 0.127 s⁻¹ and the kcat/Km ([2]; 0.3 μM enzyme) was 2600 ± 303 M⁻¹ s⁻¹.

B3: HchA (Escherichia coli K-12) (protein)
chain: MTVQTSKNPQVDIAEDNAFFPSEYSLSQYTSPVSDLDGVDYPKPYRGKHKILVIAADERYLPTDNGKLFSTGNHPIETLLPLYHLHAAGFEFEVATISGLMTKFEYWAMPHKDEKVMPFFEQHKSLFRNPKKLADVVASLNADSEYAAIFVPGGHGALIGLPESQDVAAALQWAIKNDRFVISLCHGPAAFLALRHGDNPLNGYSICAFPDAADKQTPEIGYMPGHLTWYFGEELKKMGMNIINDDITGRVHKDRKLLTGDSPFAANALGKLAAQEMLAAYAG
notes: N-terminal His-tag (pET21a), expressed in E. coli BL21(DE3)+RIL, Ni-NTA purified, tag removal not mentioned; dimer
For B3, the Km ([3]; 0.3 μM enzyme) was 1.49 ± 0.40 × 10^-4 M, the kcat ([3]; 0.3 μM enzyme) was 0.67 ± 0.053 s⁻¹ and the kcat/Km ([3]; 0.3 μM enzyme) was 4730 ± 1250 M⁻¹ s⁻¹.

B4: HchA (Escherichia coli K-12; H186A) (protein)
chain: MTVQTSKNPQVDIAEDNAFFPSEYSLSQYTSPVSDLDGVDYPKPYRGKHKILVIAADERYLPTDNGKLFSTGNHPIETLLPLYHLHAAGFEFEVATISGLMTKFEYWAMPHKDEKVMPFFEQHKSLFRNPKKLADVVASLNADSEYAAIFVPGGHGALIGLPESQDVAAALQWAIKNDRFVISLCAGPAAFLALRHGDNPLNGYSICAFPDAADKQTPEIGYMPGHLTWYFGEELKKMGMNIINDDITGRVHKDRKLLTGDSPFAANALGKLAAQEMLAAYAG
notes: as for B3
In the case of B4, the Km [4] is reported as 4.76 ± 0.36 × 10^-3 M, the kcat [4] is reported as 3.11 ± 0.144 s⁻¹ and the kcat/Km [4] is reported as 655 ± 19.4 M⁻¹ s⁻¹. The Km ([3]; 1.8 μM enzyme) was 1.87 ± 0.24 × 10^-5 M, the kcat ([3]; 1.8 μM enzyme) was 0.0491 ± 0.004 s⁻¹ and the kcat/Km ([3]; 1.8 μM enzyme) was 2640 ± 202 M⁻¹ s⁻¹.

B5: HchA (Escherichia coli K-12; D214A) (protein)
chain: MTVQTSKNPQVDIAEDNAFFPSEYSLSQYTSPVSDLDGVDYPKPYRGKHKILVIAADERYLPTDNGKLFSTGNHPIETLLPLYHLHAAGFEFEVATISGLMTKFEYWAMPHKDEKVMPFFEQHKSLFRNPKKLADVVASLNADSEYAAIFVPGGHGALIGLPESQDVAAALQWAIKNDRFVISLCHGPAAFLALRHGDNPLNGYSICAFPDAAAKQTPEIGYMPGHLTWYFGEELKKMGMNIINDDITGRVHKDRKLLTGDSPFAANALGKLAAQEMLAAYAG
notes: as for B3
In the case of B5, the Km ([3]; 1.8 μM enzyme) is reported as 2.55 ± 0.47 × 10^-5 M, the kcat ([3]; 1.8 μM enzyme) is reported as 0.075 ± 0.005 s⁻¹ and the kcat/Km ([3]; 1.8 μM enzyme) is reported as 2980 ± 355 M⁻¹ s⁻¹.

— article PMC11301059, “The origin of esterase activity of Parkinson's disease causative factor DJ-1 implied by evolutionary trace analysis of its prokaryotic homolog HchA” (The Journal of Biological Chemistry, 2024)
